From the supplement of paper PMC5998384 come the findings set out here.

For data set [1], the system named is HeLa Kyoto. Briefly: solubility in G1/S (NP-40 vs SDS abundance) (log2 ratio); higher = more soluble. The note with it: cell cycle stage: G1/S.
In data set [2] the test system is HeLa Kyoto. The experiment in a line: solubility change mitosis vs G1/S (difference of NP-40 vs SDS log2 ratios) (log2 ratio difference); higher = more soluble in mitosis.
Data set [3] relates to HeLa Kyoto. Briefly: thermal stability score vs G1/S (z-score of summed log2 fold changes over temperatures); higher = more thermally stable than in G1/S.
The mark [4] stands for this setting: cell cycle stage: early G1 (4.5 h after nocodazole release).
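Wherever solubility change mitosis vs G1/S (difference of NP-40 vs SDS log2 ratios) is given: synchronized HeLa Kyoto cells (double thymidine block for G1/S, nocodazole release for mitosis), protein amounts in NP-40 versus SDS lysates quantified by mass spectrometry, three biological replicates.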
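Wherever solubility in G1/S (NP-40 vs SDS abundance) is given: HeLa Kyoto cells arrested at G1/S by double thymidine block, proteins quantified by TMT10plex mass spectrometry in mild NP-40 versus SDS extracts, three biological replicates.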
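Wherever thermal stability score vs G1/S (z-score of summed log2 fold changes over temperatures) is given: synchronized HeLa Kyoto cells, proteins quantified by TMT10plex mass spectrometry, three biological replicates, mitosis taken 0.5 h after nocodazole release, G1/S directly after double thymidine block.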

Consider “MAGENFATPFHGHVGRGAFSDVYEPAEDTFLLLDALEAAAAELAGVEICLEVGSGSGVVSAFLASMIGPQALYMCTDINPEAAACTLETARCNKVHIQPVITDLVKGLLPRLTEKVDLLVFNPPYVVTPPQEVGSHGIEAAWAGGRNGREVMDRFFPLVPDLLSPRGLFYLVTIKENNPEEILKIMKTKGLQGTTALSRQAGQETLSVLKFTKS [N6AMT1]”, for which the “solubility in G1/S (log2)” value in data set [1] stood at 0.483. For the same sequence, the “solubility change mitosis (log2)” value in data set [2] is 0.0523. Further, the thermal stability score amounted to 0.341 in data set [3] (setting [4]) and 0.273 in data set [3] (cell cycle stage: mitosis).

Consider “MAKREDSPGPEVQPMDKQFLVCSICLDRYQCPKVLPCLHTFCERCLQNYIPAQSLTLSCPVCRQTSILPEQGVSALQNNFFISSLMEAMQQAPDGAHDPEDPHPLSVVAGRPLSCPNHEGKTMEFYCEACETAMCGECRAGEHREHGTVLLRDVVEQHKAALQRQLEAVRGRLPQLSAAIALVGGISQQLQERKAEALAQISAAFEDLEQALQQRKQALVSDLETICGAKQKVLQSQLDTLRQGQEHIGSSCSFAEQALRLGSAPEVLLVRKHMRERLAALAAQAFPERPHENAQLELVLEVDGLRRSVLNLGALLTTSATAHETVATGEGLRQALVGQPASLTVTTKDKDGRLVRTGSAELRAEITGPDGTRLPVPVVDHKNGTYELVYTARTEGELLLSVLLYGQPVRGSPFRVRALRPGDLPPSPDDVKRRVKSPGGPGSHVRQKAVRRPSSMYSTGGKRKDNPIEDELVFRVGSRGREKGEFTNLQGVSAASSGRIVVADSNNQCIQVFSNEGQFKFRFGVRGRSPGQLQRPTGVAVDTNGDIIVADYDNRWVSIFSPEGKFKTKIGAGRLMGPKGVAVDRNGHIIVVDNKSCCVFTFQPNGKLVGRFGGRGATDRHFAGPHFVAVNNKNEIVVTDFHNHSVKVYSADGEFLFKFGSHGEGNGQFNAPTGVAVDSNGNIIVADWGNSRIQVFDSSGSFLSYINTSAEPLYGPQGLALTSDGHVVVADAGNHCFKAYRYLQ [TRIM3]”, for which the “solubility in G1/S (log2)” value in data set [1] is -0.0387. Further, the “solubility change mitosis (log2)” value in data set [2] is -0.138. For the same sequence, the thermal stability score is 0.13 in data set [3] (setting [4]) and 0.0555 in data set [3] (cell cycle stage: mitosis).

Regarding “MAPARLFALLLFFVGGVAESIRETEVIDPQDLLEGRYFSGALPDDEDVVGPGQESDDFELSGSGDLDDLEDSMIGPEVVHPLVPLDNHIPERAGSGSQVPTEPKKLEENEVIPKRISPVEESEDVSNKVSMSSTVQGSNIFERTEVLAALIVGGIVGILFAVFLILLLMYRMKKKDEGSYDLGKKPIYKKAPTNEFYA [SDC4]”, the “solubility in G1/S (log2)” value in data set [1] was -0.523. Besides, the “solubility change mitosis (log2)” value in data set [2] was determined as 0.235. The thermal stability score in data set [3] (setting [4]) is 2.66; in data set [3] (cell cycle stage: mitosis), 4.92.

On to “MAQVSINNDYSEWDLSTDAGERARLLQSPCVDTAPKSEWEASPGGLDRGTTSTLGAIFIVVNACLGAGLLNFPAAFSTAGGVAAGIALQMGMLVFIISGLVILAYCSQASNERTYQEVVWAVCGKLTGVLCEVAIAVYTFGTCIAFLIIIGDQQDKIIAVMAKEPEGASGPWYTDRKFTISLTAFLFILPLSIPREIGFQKYASFLSVVGTWYVTAIVIIKYIWPDKEMTPGNILTRPASWMAVFNAMPTICFGFQCHVSSVPVFNSMQQPEVKTWGGVVTAAMVIALAVYMGTGICGFLTFGAAVDPDVLLSYPSEDMAVAVARAFIILSVLTSYPILHFCGRAVVEGLWLRYQGVPVEEDVGRERRRRVLQTLVWFLLTLLLALFIPDIGKVISVIGGLAACFIFVFPGLCLIQAKLSEMEEVKPASWWVLVSYGVLLVTLGAFIFGQTTANAIFVDLLA [SLC38A7]”, for which the “solubility in G1/S (log2)” value in data set [1] was -0.213. For the same sequence, the “solubility change mitosis (log2)” value in data set [2] is -0.113. The thermal stability score in data set [3] (setting [4]) was -4.08; in data set [3] (cell cycle stage: mitosis), -4.26.

“MATLVELPDSVLLEIFSYLPVRDRIRISRVCHRWKRLVDDRWLWRHVDLTLYTMRPKVMWHLLRRYMASRLHSLRMGGYLFSGSQAPQLSPALLRALGQKCPNLKRLCLHVADLSMVPITSLPSTLRTLELHSCEISMAWLHKQQDPTVLPLLECIVLDRVPAFRDEHLQGLTRFRALRSLVLGGTYRVTETGLDAGLQELSYLQRLEVLGCTLSADSTLLAISRHLRDVRKIRLTVRGLSAPGLAVLEGMPALESLCLQGPLVTPEMPSPTEILSSCLTMPKLRVLELQGLGWEGQEAEKILCKGLPHCMVIVRACPKESMDWWM [FBXL12]”: the “solubility in G1/S (log2)” value in data set [1] was -0.129. Besides, in data set [2], the “solubility change mitosis (log2)” value was -0.183. In addition, the values for the thermal stability score in data set [3] (setting [4]) and in data set [3] (cell cycle stage: mitosis) were -0.861 and -0.543, respectively.

Consider “MAVSERRGLGRGSPAEWGQRLLLVLLLGGCSGRIHQLALTGEKRADIQLNSFGFYTNGSLEVELSVLRLGLREAEEKSLLVGFSLSRVRSGRVRSYSTRDFQDCPLQKNSSSFLVLFLINTKDLQVQVRKYGEQKTLFIFPGLLPEAPSKPGLPKPQATVPRKVDGGGTSAASKPKSTPAVIQGPSGKDKDLVLGLSHLNNSYNFSFHVVIGSQAEEGQYSLNFHNCNNSVPGKEHPFDITVMIREKNPDGFLSAAEMPLFKLYMVMSACFLAAGIFWVSILCRNTYSVFKIHWLMAALAFTKSISLLFHSINYYFINSQGHPIEGLAVMYYIAHLLKGALLFITIALIGSGWAFIKYVLSDKEKKVFGIVIPMQVLANVAYIIIESREEGASDYVLWKEILFLVDLICCGAILFPVVWSIRHLQDASGTDGKVAVNLAKLKLFRHYYVMVICYVYFTRIIAILLQVAVPFQWQWLYQLLVEGSTLAFFVLTGYKFQPTGNNPYLQLPQEDEEDVQMEQVMTDSGFREGLSKVNKTASGRELL [GPR108]”, for which the “solubility in G1/S (log2)” value in data set [1] worked out at 0.04. The “solubility change mitosis (log2)” value in data set [2] is -0.16. Also, the values for the thermal stability score in data set [3] (setting [4]) and in data set [3] (cell cycle stage: mitosis) were -3.36 and -3.48, respectively.
